Laboratory results as given in PMC8225672.

What was measured:
[1] = target: Human GHSR (growth hormone secretagogue receptor, ghrelin receptor), purified and inserted into lipid nanodiscs (human) (UniProt Q92847); assay: FRET or BRET; competition: time-resolved energy transfer between purified GHSR labeled with Lumi4-Tb at its N-terminus and dy647-labeled ghrelin (0.1 µM range), increasing competitor; GHSR in 17 nm nanodiscs (cNW30 scaffold); isolated receptor without G protein
[2] = target: Human GHSR (growth hormone secretagogue receptor, ghrelin receptor), purified and inserted into lipid nanodiscs (human) (UniProt Q92847); assay: FRET or BRET; competition: time-resolved energy transfer between purified GHSR labeled with Lumi4-Tb at its N-terminus and dy647-labeled ghrelin (0.1 µM range), increasing competitor; GHSR in 12 nm nanodiscs (MSP1E3D1(-) scaffold); isolated receptor without G protein

Sequence of UniProt Q92847 (Q92847 whole entry): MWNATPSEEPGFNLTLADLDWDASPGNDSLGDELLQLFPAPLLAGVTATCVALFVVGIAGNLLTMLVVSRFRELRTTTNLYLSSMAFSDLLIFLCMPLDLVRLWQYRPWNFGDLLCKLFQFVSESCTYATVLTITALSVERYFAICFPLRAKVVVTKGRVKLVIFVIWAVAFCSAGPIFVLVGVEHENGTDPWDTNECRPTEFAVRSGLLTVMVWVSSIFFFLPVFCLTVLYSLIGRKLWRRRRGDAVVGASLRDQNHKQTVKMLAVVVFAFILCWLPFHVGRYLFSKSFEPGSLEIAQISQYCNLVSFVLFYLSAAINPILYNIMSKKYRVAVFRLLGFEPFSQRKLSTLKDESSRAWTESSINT

In the case of “LEAP2(1-14), the active N-terminal region of the natural inverse agonist LEAP2 (peptide)”, the Ki [1] is reported as 4.6 nM and the Ki [2] is reported as 6.7 nM.
